According to patent US11466286B2, “Methods and compositions for conferring and/or enhancing herbicide tolerance using protoporphyrinogen oxidase or variant thereof” (FarmHannong Co., Ltd., priority 2016, dated 2022):

B1: CyPPO13 A177C + F373V: CyPPO13 (SEQ ID NO: 4) PPO variant (protein)
chain: MNPATPEPLNAEVVVIGAGISGLTLAWRLQQGLSARGGSPQAVLLAEASSRVGGCISTQSKDGYRWEEGPNSFTPTPALLNLIAEVGLTDQLVLADAKLPRYIYWEGALLPVPLSPAAALGSRLLSVGGKLRALQGLLGFVPPPPGHEETVRQFFRRQLGSEVAERLVEPFTSGVYCGDPDQLSAVAAFPRVAGLEERYGSLFAGALQALRQRPQPSPAAIQPPPKRGQLGNLRQGLQQLPEALAQKLGDSLRLGWRALQLKRAGELYWVGFETPEGSRWVAARQVVLALPAYEAAALLQELNPPASQLLAEILYPPVAVVALAYPQEALPQPLRGFGHLIPRSQGLRTLGTIWASCLFPERAPQGYHSFLSVLGGATDAALARRRGIPPIPALSPEERAQIAHAELSQVLLTRRAEPVYLGERLWPRAIPQYTLGHRQRIAQVQAHLASQTPGIWVCANYLDGVALGDCVRRAEALAQQLLSQV
modifications: Synthetic CyPPO13
B2: CyPPO13 G194K + F373M: CyPPO13 (SEQ ID NO: 4) PPO variant (protein)
chain: MNPATPEPLNAEVVVIGAGISGLTLAWRLQQGLSARGGSPQAVLLAEASSRVGGCISTQSKDGYRWEEGPNSFTPTPALLNLIAEVGLTDQLVLADAKLPRYIYWEGALLPVPLSPAAALGSRLLSVGGKLRALQGLLGFVPPPPGHEETVRQFFRRQLGSEVAERLVEPFTSGVYAGDPDQLSAVAAFPRVAKLEERYGSLFAGALQALRQRPQPSPAAIQPPPKRGQLGNLRQGLQQLPEALAQKLGDSLRLGWRALQLKRAGELYWVGFETPEGSRWVAARQVVLALPAYEAAALLQELNPPASQLLAEILYPPVAVVALAYPQEALPQPLRGFGHLIPRSQGLRTLGTIWASCLFPERAPQGYHSFLSMLGGATDAALARRRGIPPIPALSPEERAQIAHAELSQVLLTRRAEPVYLGERLWPRAIPQYTLGHRQRIAQVQAHLASQTPGIWVCANYLDGVALGDCVRRAEALAQQLLSQV
modifications: Synthetic CyPPO13
B3: CyPPO13 G194R + F373M: CyPPO13 (SEQ ID NO: 4) PPO variant (protein)
chain: MNPATPEPLNAEVVVIGAGISGLTLAWRLQQGLSARGGSPQAVLLAEASSRVGGCISTQSKDGYRWEEGPNSFTPTPALLNLIAEVGLTDQLVLADAKLPRYIYWEGALLPVPLSPAAALGSRLLSVGGKLRALQGLLGFVPPPPGHEETVRQFFRRQLGSEVAERLVEPFTSGVYAGDPDQLSAVAAFPRVARLEERYGSLFAGALQALRQRPQPSPAAIQPPPKRGQLGNLRQGLQQLPEALAQKLGDSLRLGWRALQLKRAGELYWVGFETPEGSRWVAARQVVLALPAYEAAALLQELNPPASQLLAEILYPPVAVVALAYPQEALPQPLRGFGHLIPRSQGLRTLGTIWASCLFPERAPQGYHSFLSMLGGATDAALARRRGIPPIPALSPEERAQIAHAELSQVLLTRRAEPVYLGERLWPRAIPQYTLGHRQRIAQVQAHLASQTPGIWVCANYLDGVALGDCVRRAEALAQQLLSQV
modifications: Synthetic CyPPO13
B4: CyPPO13 G194E + F373M: CyPPO13 (SEQ ID NO: 4) PPO variant (protein)
chain: MNPATPEPLNAEVVVIGAGISGLTLAWRLQQGLSARGGSPQAVLLAEASSRVGGCISTQSKDGYRWEEGPNSFTPTPALLNLIAEVGLTDQLVLADAKLPRYIYWEGALLPVPLSPAAALGSRLLSVGGKLRALQGLLGFVPPPPGHEETVRQFFRRQLGSEVAERLVEPFTSGVYAGDPDQLSAVAAFPRVAELEERYGSLFAGALQALRQRPQPSPAAIQPPPKRGQLGNLRQGLQQLPEALAQKLGDSLRLGWRALQLKRAGELYWVGFETPEGSRWVAARQVVLALPAYEAAALLQELNPPASQLLAEILYPPVAVVALAYPQEALPQPLRGFGHLIPRSQGLRTLGTIWASCLFPERAPQGYHSFLSMLGGATDAALARRRGIPPIPALSPEERAQIAHAELSQVLLTRRAEPVYLGERLWPRAIPQYTLGHRQRIAQVQAHLASQTPGIWVCANYLDGVALGDCVRRAEALAQQLLSQV
modifications: Synthetic CyPPO13
B5: CyPPO13 G194M + F373M: CyPPO13 (SEQ ID NO: 4) PPO variant (protein)
chain: MNPATPEPLNAEVVVIGAGISGLTLAWRLQQGLSARGGSPQAVLLAEASSRVGGCISTQSKDGYRWEEGPNSFTPTPALLNLIAEVGLTDQLVLADAKLPRYIYWEGALLPVPLSPAAALGSRLLSVGGKLRALQGLLGFVPPPPGHEETVRQFFRRQLGSEVAERLVEPFTSGVYAGDPDQLSAVAAFPRVAMLEERYGSLFAGALQALRQRPQPSPAAIQPPPKRGQLGNLRQGLQQLPEALAQKLGDSLRLGWRALQLKRAGELYWVGFETPEGSRWVAARQVVLALPAYEAAALLQELNPPASQLLAEILYPPVAVVALAYPQEALPQPLRGFGHLIPRSQGLRTLGTIWASCLFPERAPQGYHSFLSMLGGATDAALARRRGIPPIPALSPEERAQIAHAELSQVLLTRRAEPVYLGERLWPRAIPQYTLGHRQRIAQVQAHLASQTPGIWVCANYLDGVALGDCVRRAEALAQQLLSQV
modifications: Synthetic CyPPO13
B6: CyPPO13 G194Q + F373M: CyPPO13 (SEQ ID NO: 4) PPO variant (protein)
chain: MNPATPEPLNAEVVVIGAGISGLTLAWRLQQGLSARGGSPQAVLLAEASSRVGGCISTQSKDGYRWEEGPNSFTPTPALLNLIAEVGLTDQLVLADAKLPRYIYWEGALLPVPLSPAAALGSRLLSVGGKLRALQGLLGFVPPPPGHEETVRQFFRRQLGSEVAERLVEPFTSGVYAGDPDQLSAVAAFPRVAQLEERYGSLFAGALQALRQRPQPSPAAIQPPPKRGQLGNLRQGLQQLPEALAQKLGDSLRLGWRALQLKRAGELYWVGFETPEGSRWVAARQVVLALPAYEAAALLQELNPPASQLLAEILYPPVAVVALAYPQEALPQPLRGFGHLIPRSQGLRTLGTIWASCLFPERAPQGYHSFLSMLGGATDAALARRRGIPPIPALSPEERAQIAHAELSQVLLTRRAEPVYLGERLWPRAIPQYTLGHRQRIAQVQAHLASQTPGIWVCANYLDGVALGDCVRRAEALAQQLLSQV
modifications: Synthetic CyPPO13
B7: CyPPO13 R101A: CyPPO13 (SEQ ID NO: 4) PPO variant (protein)
chain: MNPATPEPLNAEVVVIGAGISGLTLAWRLQQGLSARGGSPQAVLLAEASSRVGGCISTQSKDGYRWEEGPNSFTPTPALLNLIAEVGLTDQLVLADAKLPAYIYWEGALLPVPLSPAAALGSRLLSVGGKLRALQGLLGFVPPPPGHEETVRQFFRRQLGSEVAERLVEPFTSGVYAGDPDQLSAVAAFPRVAGLEERYGSLFAGALQALRQRPQPSPAAIQPPPKRGQLGNLRQGLQQLPEALAQKLGDSLRLGWRALQLKRAGELYWVGFETPEGSRWVAARQVVLALPAYEAAALLQELNPPASQLLAEILYPPVAVVALAYPQEALPQPLRGFGHLIPRSQGLRTLGTIWASCLFPERAPQGYHSFLSFLGGATDAALARRRGIPPIPALSPEERAQIAHAELSQVLLTRRAEPVYLGERLWPRAIPQYTLGHRQRIAQVQAHLASQTPGIWVCANYLDGVALGDCVRRAEALAQQLLSQV
modifications: Synthetic CyPPO13
B8: CyPPO13 F171A: CyPPO13 (SEQ ID NO: 4) PPO variant (protein)
chain: MNPATPEPLNAEVVVIGAGISGLTLAWRLQQGLSARGGSPQAVLLAEASSRVGGCISTQSKDGYRWEEGPNSFTPTPALLNLIAEVGLTDQLVLADAKLPRYIYWEGALLPVPLSPAAALGSRLLSVGGKLRALQGLLGFVPPPPGHEETVRQFFRRQLGSEVAERLVEPATSGVYAGDPDQLSAVAAFPRVAGLEERYGSLFAGALQALRQRPQPSPAAIQPPPKRGQLGNLRQGLQQLPEALAQKLGDSLRLGWRALQLKRAGELYWVGFETPEGSRWVAARQVVLALPAYEAAALLQELNPPASQLLAEILYPPVAVVALAYPQEALPQPLRGFGHLIPRSQGLRTLGTIWASCLFPERAPQGYHSFLSFLGGATDAALARRRGIPPIPALSPEERAQIAHAELSQVLLTRRAEPVYLGERLWPRAIPQYTLGHRQRIAQVQAHLASQTPGIWVCANYLDGVALGDCVRRAEALAQQLLSQV
modifications: Synthetic CyPPO13

System: CyPPO13
Experiment: PPO enzyme activity and IC50 by herbicides, CyPPO13 wild type and variants (MBP-PPO fusion)
Format: biochemical, Synechococcus sp. JA-3-3Ab
Conditions: PPO enzyme activity of CyPPO13 protein, wild type = 100
Experimental: The enzyme activities of PPO protein and PPO protein variants were examined, and inhibition assay by PPO-inhibiting herbicides was conducted. It was confirmed that the PPO protein has low water-solubility, but in case of being expressed as a fusion protein with MBP (maltose binding protein) (MBP-PPO), the PPO protein is able to be stably expressed as water-soluble form. Therefore, the wild type and variant proteins which were expressed in the form of fusion protein with MBP were used in the present test (refer to FIG. 4).
In order to express wild type genes and mutant genes of CyPPO10 and CyPPO13 (refer to Example 1 and Example 4), those genes were introduced to pMAL-c2X vector (refer to FIG. 5) respectively, and then cloned to BL21 (DE3) E. coli (CodonPlus).
The enzyme activity of the purified wild type protein and variant proteins of CyPPO10 and CyPPO13 was measured by the following process.
At first, a substrate of PPO protein, Protoporphyrinogen IX was synthesized. This process was performed in the space where nitrogen gas is streamed. 6 mg of protoporphyrin IX was dissolved in 20% (v/v) EtOH 20 ml, and stirred under dark condition for 30 minutes. The obtained protoporphyrinogen IX solution was put into a 15 ml screw tube in an amount of 800 and flushed with nitrogen gas for 5 minutes. To this, 1 g of sodium amalgam was added and vigorous shaking was performed for 2 minutes. The lid was open to exhaust hydrogen gas in the tube. Thereafter, the lid was closed and incubated for 3 minutes. The […] was filtered using syringe and cellulose membrane filter. To 600 μl of the obtained […], 2M MOPS [3-(N-morpholino)propanesulfonic acid] was added in an amount of approximately 300 thereby adjusting pH to 8.0. To determine the enzyme activity of PPO protein, a reaction mixture was prepared with the following composition (based on 10 ml): 50 mM Tris-Cl (pH 8.0); 50 mM NaCl; 0.04% (v/v) Tween 20; 40 mM glucose (0.072 g); 5 units glucose oxidase (16.6 mg); and 10 units catalase (1 μl).
Two hundred microliters (200 μl) of reaction mixture containing a purified PPO protein were placed in 96 well plates, and preincubated for 30 min at room temperature to reduce the oxygen concentration by the reaction of glucose oxidase-catalase. The mineral oil was layered and then the reaction was initiated by adding the substrate, […], to a final concentration of 50 μM. The reaction proceeded at room temperature for 30 min and the fluorescence of protoporphyrin IX was measured using Microplate reader (Sense, Hidex) (excitation: 405 nm; emission: 633 nm). To calculate the PPO enzyme activity, protoporphyrinogen IX solution was kept open in the air to oxidize the solution (overnight). To this, 2.7N HCl was added, and the absorbance at 408 nm was measured. A standard curve was generated using standard protoporphyrin IX, and the PPO activity was measured by calibration of protoporphyrin IX using the standard curve of protoporphyrin IX.
The final concentration of each herbicide was as follows: […]

First: B1
Second: B2
The “Activity (%)” value of the first is higher: 56% for the first, 41% for the second.

First: B3
Second: B4
The “Activity (%)” value of the first is higher: 35% for the first, 32% for the second.

First: B5
Second: B6
The “Activity (%)” value of the first is higher: 43% for the first, 37% for the second.

First: B7
Second: B8
The “Activity (%)” value of the first is higher: 87% for the first, 70% for the second.
